Experimental data reported in patent US20220089730A1 (published 2022).
Blank lines part the entries; values can stand above or below the binder they belong to.

What was measured:
[1] = molecular target: T1, PSMA (Prostate-Specific Membrane Antigen), glutamate carboxypeptidase 2 (UniProt Q04609 1-750); assay: FACS
[2] = molecular target: T1, PSMA (Prostate-Specific Membrane …); assay: FACS; C4-2 XCL cells
[3] = molecular target: CD8 (cell surface CD8 on HPB-ALL cells) (UniProt P01732 22-235; A6NJW9 19-210); assay: FACS
Chain of CD8 (cell surface CD8 on HPB-ALL cells) (P01732 22-235, chain 1 of 2): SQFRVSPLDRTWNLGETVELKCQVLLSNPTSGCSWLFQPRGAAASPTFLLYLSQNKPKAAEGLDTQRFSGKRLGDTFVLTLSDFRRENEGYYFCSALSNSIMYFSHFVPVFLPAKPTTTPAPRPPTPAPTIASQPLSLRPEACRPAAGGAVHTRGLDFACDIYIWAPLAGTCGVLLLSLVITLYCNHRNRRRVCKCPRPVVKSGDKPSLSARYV
Chain of CD8 (cell surface CD8 on HPB-ALL cells) (A6NJW9 19-210 C51R/T71A, chain 2 of 2): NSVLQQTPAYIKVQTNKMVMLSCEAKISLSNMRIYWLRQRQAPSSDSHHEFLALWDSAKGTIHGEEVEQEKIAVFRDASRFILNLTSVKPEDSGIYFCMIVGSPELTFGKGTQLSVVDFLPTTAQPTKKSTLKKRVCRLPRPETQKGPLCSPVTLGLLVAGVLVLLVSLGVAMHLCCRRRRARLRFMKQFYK

[4] = molecular target: T1, PSMA (Prostate-Specific Membrane …); assay: FACS; LNCaP-AR cells

EC50 [3]: 0.146 nM
B2: IAB22M γ1 EH5 (other)
chain: DVQITQSPSSLSASVGDRVTITCRTSRSISQYLAWYQQKPGKVPKLLIYSGSTLQSGVPSRFSGSGSGTDFTLTISSLQPEDVATYYCQQHNENPLTFGGGTKVEIKGSTSGGGSGGGSGGGGSSEVQLVESGGGLVQPGGSLRLSCAASGFNIKDTYIHFVRQAPGKGLEWIGRIDPANDNTLYASKFQGKATISADTSKNTAYLQMNSLRAEDTAVYYCGRGYGYYVFDHWGQGTLVTVSSEPKSSDKTHTCPPCPPCPPCGGGSSGGGSGGQPREPQVYTLPPSRDELTKNQVSLTCLVKGFYPSDIAVEWESNGQPENNYKTTPPVLDSDGSFFLYSKLTVDKSRWQQGNVFSCSVMHEALHNHYTQKSLSLSPGK

EC50 [3]: 0.163 nM
B4: IAB22M γ3/γ1 EH8 (other)
chain: DVQITQSPSSLSASVGDRVTITCRTSRSISQYLAWYQQKPGKVPKLLIYSGSTLQSGVPSRFSGSGSGTDFTLTISSLQPEDVATYYCQQHNENPLTFGGGTKVEIKGSTSGGGSGGGSGGGGSSEVQLVESGGGLVQPGGSLRLSCAASGFNIKDTYIHFVRQAPGKGLEWIGRIDPANDNTLYASKFQGKATISADTSKNTAYLQMNSLRAEDTAVYYCGRGYGYYVFDHWGQGTLVTVSSELKTPLGDTTHTCPPCPPCPPCGGGSSGGGSGGQPREPQVYTLPPSRDELTKNQVSLTCLVKGFYPSDIAVEWESNGQPENNYKTTPPVLDSDGSFFLYSKLTVDKSRWQQGNVFSCSVMHEALHNHYTQKSLSLSPGK

EC50 [3]: 0.17 nM
B9: IAB22M γ3/γ1 EH7 (other)
chain: DVQITQSPSSLSASVGDRVTITCRTSRSISQYLAWYQQKPGKVPKLLIYSGSTLQSGVPSRFSGSGSGTDFTLTISSLQPEDVATYYCQQHNENPLTFGGGTKVEIKGSTSGGGSGGGSGGGGSSEVQLVESGGGLVQPGGSLRLSCAASGFNIKDTYIHFVRQAPGKGLEWIGRIDPANDNTLYASKFQGKATISADTSKNTAYLQMNSLRAEDTAVYYCGRGYGYYVFDHWGQGTLVTVSSELKTPLGDTTHTCPPCPPCGGGSSGGGSGGQPREPQVYTLPPSRDELTKNQVSLTCLVKGFYPSDIAVEWESNGQPENNYKTTPPVLDSDGSFFLYSKLTVDKSRWQQGNVFSCSVMHEALHNHYTQKSLSLSPGK

EC50 [3]: 0.188 nM
B10: IAB22M γ3/γ1 EH6 (other)
chain: DVQITQSPSSLSASVGDRVTITCRTSRSISQYLAWYQQKPGKVPKLLIYSGSTLQSGVPSRFSGSGSGTDFTLTISSLQPEDVATYYCQQHNENPLTFGGGTKVEIKGSTSGGGSGGGSGGGGSSEVQLVESGGGLVQPGGSLRLSCAASGFNIKDTYIHFVRQAPGKGLEWIGRIDPANDNTLYASKFQGKATISADTSKNTAYLQMNSLRAEDTAVYYCGRGYGYYVFDHWGQGTLVTVSSELKTPLGDTTHTCVECPPCGGGSSGGGSGGQPREPQVYTLPPSRDELTKNQVSLTCLVKGFYPSDIAVEWESNGQPENNYKTTPPVLDSDGSFFLYSKLTVDKSRWQQGNVFSCSVMHEALHNHYTQKSLSLSPGK

EC50 [3]: 0.156 nM
B11: IAB22M γ2 EH2 (other)
chain: DVQITQSPSSLSASVGDRVTITCRTSRSISQYLAWYQQKPGKVPKLLIYSGSTLQSGVPSRFSGSGSGTDFTLTISSLQPEDVATYYCQQHNENPLTFGGGTKVEIKGSTSGGGSGGGSGGGGSSEVQLVESGGGLVQPGGSLRLSCAASGFNIKDTYIHFVRQAPGKGLEWIGRIDPANDNTLYASKFQGKATISADTSKNTAYLQMNSLRAEDTAVYYCGRGYGYYVFDHWGQGTLVTVSSERKSCVECPPCPGGGSSGGGSGGQPREPQVYTLPPSREEMTKNQVSLTCLVKGFYPSDIAVEWESNGQPENNYKTTPPMLDSDGSFFLYSKLTVDKSRWQQGNVFSCSVMHEALHNHYTQKSLSLSPGK

More lines, now with the values behind:

B1: IAB2M γ1 EH3 (other)
chain: DIVMTQSPSSLSASVGDRVTITCKASQDVGTAVDWYQQKPGKAPKLLIYWASTRHTGVPDRFTGSGSGTDFTLTISSLQPEDFADYFCQQYNSYPLTFGGGTKLEIKGSTSGGGSGGGSGGGGSSEVQLVQSGAEVKKPGASVKISCKTSGYTFTEYTIHWVKQASGKGLEWIGNINPNNGGTTYNQKFEDRATLTVDKSTSTAYMELSSLRSEDTAVYYCAAGWNFDYWGQGTTVTVSSEPKSSDKTHTCPPCPPCGGGSSGGGSGGQPREPQVYTLPPSRDELTKNQVSLTCLVKGFYPSDIAVEWESNGQPENNYKTTPPVLDSDGSFFLYSKLTVDKSRWQQGNVFSCSVMHEALHNHYTQKSLSLSPGK
EC50 [1]: 0.162 nM
EC50 [2]: 0.38 nM

B3: IAB2M γ1 EH5 (other)
chain: DIVMTQSPSSLSASVGDRVTITCKASQDVGTAVDWYQQKPGKAPKLLIYWASTRHTGVPDRFTGSGSGTDFTLTISSLQPEDFADYFCQQYNSYPLTFGGGTKLEIKGSTSGGGSGGGSGGGGSSEVQLVQSGAEVKKPGASVKISCKTSGYTFTEYTIHWVKQASGKGLEWIGNINPNNGGTTYNQKFEDRATLTVDKSTSTAYMELSSLRSEDTAVYYCAAGWNFDYWGQGTTVTVSSEPKSSDKTHTCPPCPPCPPCGGGSSGGGSGGQPREPQVYTLPPSRDELTKNQVSLTCLVKGFYPSDIAVEWESNGQPENNYKTTPPVLDSDGSFFLYSKLTVDKSRWQQGNVFSCSVMHEALHNHYTQKSLSLSPGK
EC50 [1]: 0.183 nM

B5: IAB2M γ3/γ1 EH7 (other)
chain: DIVMTQSPSSLSASVGDRVTITCKASQDVGTAVDWYQQKPGKAPKLLIYWASTRHTGVPDRFTGSGSGTDFTLTISSLQPEDFADYFCQQYNSYPLTFGGGTKLEIKGSTSGGGSGGGSGGGGSSEVQLVQSGAEVKKPGASVKISCKTSGYTFTEYTIHWVKQASGKGLEWIGNINPNNGGTTYNQKFEDRATLTVDKSTSTAYMELSSLRSEDTAVYYCAAGWNFDYWGQGTTVTVSSELKTPLGDTTHTCPPCPPCGGGSSGGGSGGQPREPQVYTLPPSRDELTKNQVSLTCLVKGFYPSDIAVEWESNGQPENNYKTTPPVLDSDGSFFLYSKLTVDKSRWQQGNVFSCSVMHEALHNHYTQKSLSLSPGK
EC50 [1]: 0.186 nM

B6: IAB2M γ3/γ1 EH6 (other)
chain: DIVMTQSPSSLSASVGDRVTITCKASQDVGTAVDWYQQKPGKAPKLLIYWASTRHTGVPDRFTGSGSGTDFTLTISSLQPEDFADYFCQQYNSYPLTFGGGTKLEIKGSTSGGGSGGGSGGGGSSEVQLVQSGAEVKKPGASVKISCKTSGYTFTEYTIHWVKQASGKGLEWIGNINPNNGGTTYNQKFEDRATLTVDKSTSTAYMELSSLRSEDTAVYYCAAGWNFDYWGQGTTVTVSSELKTPLGDTTHTCVECPPCGGGSSGGGSGGQPREPQVYTLPPSRDELTKNQVSLTCLVKGFYPSDIAVEWESNGQPENNYKTTPPVLDSDGSFFLYSKLTVDKSRWQQGNVFSCSVMHEALHNHYTQKSLSLSPGK
EC50 [1]: 0.188 nM

B7: IAB22M γ1 EH3 (other)
chain: DVQITQSPSSLSASVGDRVTITCRTSRSISQYLAWYQQKPGKVPKLLIYSGSTLQSGVPSRFSGSGSGTDFTLTISSLQPEDVATYYCQQHNENPLTFGGGTKVEIKGSTSGGGSGGGSGGGGSSEVQLVESGGGLVQPGGSLRLSCAASGFNIKDTYIHFVRQAPGKGLEWIGRIDPANDNTLYASKFQGKATISADTSKNTAYLQMNSLRAEDTAVYYCGRGYGYYVFDHWGQGTLVTVSSEPKSSDKTHTCPPCPPCGGGSSGGGSGGQPREPQVYTLPPSRDELTKNQVSLTCLVKGFYPSDIAVEWESNGQPENNYKTTPPVLDSDGSFFLYSKLTVDKSRWQQGNVFSCSVMHEALHNHYTQKSLSLSPGK
EC50 [3]: 0.37 nM

B8: IAB2M γ2 EH1 (other)
chain: DIVMTQSPSSLSASVGDRVTITCKASQDVGTAVDWYQQKPGKAPKLLIYWASTRHTGVPDRFTGSGSGTDFTLTISSLQPEDFADYFCQQYNSYPLTFGGGTKLEIKGSTSGGGSGGGSGGGGSSEVQLVQSGAEVKKPGASVKISCKTSGYTFTEYTIHWVKQASGKGLEWIGNINPNNGGTTYNQKFEDRATLTVDKSTSTAYMELSSLRSEDTAVYYCAAGWNFDYWGQGTTVTVSSERKCCVECPPCPGGGSSGGGSGGQPREPQVYTLPPSREEMTKNQVSLTCLVKGFYPSDIAVEWESNGQPENNYKTTPPMLDSDGSFFLYSKLTVDKSRWQQGNVFSCSVMHEALHNHYTQKSLSLSPGK
EC50 [2]: 0.27 nM

B12: IAB2M γ3/γ1 EH8 (other)
chain: DIVMTQSPSSLSASVGDRVTITCKASQDVGTAVDWYQQKPGKAPKLLIYWASTRHTGVPDRFTGSGSGTDFTLTISSLQPEDFADYFCQQYNSYPLTFGGGTKLEIKGSTSGGGSGGGSGGGGSSEVQLVQSGAEVKKPGASVKISCKTSGYTFTEYTIHWVKQASGKGLEWIGNINPNNGGTTYNQKFEDRATLTVDKSTSTAYMELSSLRSEDTAVYYCAAGWNFDYWGQGTTVTVSSELKTPLGDTTHTCPPCPPCPPCGGGSSGGGSGGQPREPQVYTLPPSRDELTKNQVSLTCLVKGFYPSDIAVEWESNGQPENNYKTTPPVLDSDGSFFLYSKLTVDKSRWQQGNVFSCSVMHEALHNHYTQKSLSLSPGK
EC50 [1]: 0.227 nM

B13: IAB2M γ1 EH2 (other)
chain: DIVMTQSPSSLSASVGDRVTITCKASQDVGTAVDWYQQKPGKAPKLLIYWASTRHTGVPDRFTGSGSGTDFTLTISSLQPEDFADYFCQQYNSYPLTFGGGTKLEIKGSTSGGGSGGGSGGGGSSEVQLVQSGAEVKKPGASVKISCKTSGYTFTEYTIHWVKQASGKGLEWIGNINPNNGGTTYNQKFEDRATLTVDKSTSTAYMELSSLRSEDTAVYYCAAGWNFDYWGQGTTVTVSSEPKSSDKTHTCPPCGGGSSGGGSGGQPREPQVYTLPPSRDELTKNQVSLTCLVKGFYPSDIAVEWESNGQPENNYKTTPPVLDSDGSFFLYSKLTVDKSRWQQGNVFSCSVMHEALHNHYTQKSLSLSPGK
EC50 [4]: 0.06 nM
EC50 [2]: 0.26 nM

B14: IAB2M γ1 EH1 (other)
chain: DIVMTQSPSSLSASVGDRVTITCKASQDVGTAVDWYQQKPGKAPKLLIYWASTRHTGVPDRFTGSGSGTDFTLTISSLQPEDFADYFCQQYNSYPLTFGGGTKLEIKGSTSGGGSGGGSGGGGSSEVQLVQSGAEVKKPGASVKISCKTSGYTFTEYTIHWVKQASGKGLEWIGNINPNNGGTTYNQKFEDRATLTVDKSTSTAYMELSSLRSEDTAVYYCAAGWNFDYWGQGTTVTVSSEPKSCDKTHTCPPCGGGSSGGGSGGQPREPQVYTLPPSRDELTKNQVSLTCLVKGFYPSDIAVEWESNGQPENNYKTTPPVLDSDGSFFLYSKLTVDKSRWQQGNVFSCSVMHEALHNHYTQKSLSLSPGK
EC50 [4]: 0.05 nM
EC50 [2]: 0.4 nM
